Assay results as given in patent US20160068605A1.
Where two headings read alike, the source gives them in different places.

Columns and labels:
[1] = target: endogenous CD123 on human leukaemia cells (OCI-AML5, TF-1) (human) (UniProt P26951); assay: MSD cell binding assay on OCI-AML5 cells (endogenous CD123)
[2] = target: cyno CD123 ECD displayed on pDisplay-transfected cells (cynomolgus monkey); assay: MSD-CAT, cynoCD123 cells, assay-2
[3] = target: IL3RA-PK (CD123 tagged with ProLink) in HEK293 IL3RA-PK/CSF2RB-EA cells (UniProt P26951)
[4] = target: human CD123 SP1 ECD displayed on pDisplay-transfected cells (human) (UniProt P26951); assay: MSD-CAT, hCD123 cells, assay-2
[5] = target: IL3RA-PK (CD123 tagged with ProLink) in HEK293 IL3RA-PK/CSF2RB-EA cells (UniProt P26951); remark: listed apart in the source

human CD123 SP1 ECD displayed on pDisplay-transfected cells (human), sequence (P26951 20-305): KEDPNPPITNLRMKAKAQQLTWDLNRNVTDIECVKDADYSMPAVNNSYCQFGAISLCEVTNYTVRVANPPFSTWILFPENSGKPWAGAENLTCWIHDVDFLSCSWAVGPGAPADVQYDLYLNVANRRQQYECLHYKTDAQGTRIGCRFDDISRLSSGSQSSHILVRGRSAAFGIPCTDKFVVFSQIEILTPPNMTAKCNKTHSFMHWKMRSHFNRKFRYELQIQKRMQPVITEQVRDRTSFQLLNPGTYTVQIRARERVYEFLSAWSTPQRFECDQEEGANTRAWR
cyno CD123 ECD displayed on pDisplay-transfected cells (cynomolgus monkey), sequence (chain, as listed by the source): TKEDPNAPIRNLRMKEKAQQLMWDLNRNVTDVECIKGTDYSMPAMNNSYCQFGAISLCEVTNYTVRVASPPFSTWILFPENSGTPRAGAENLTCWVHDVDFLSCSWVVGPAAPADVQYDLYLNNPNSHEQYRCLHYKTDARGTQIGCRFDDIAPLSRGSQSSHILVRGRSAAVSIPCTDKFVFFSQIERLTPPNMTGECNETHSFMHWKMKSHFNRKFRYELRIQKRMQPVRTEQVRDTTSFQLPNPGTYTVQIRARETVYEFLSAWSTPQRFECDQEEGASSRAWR
endogenous CD123 on human leukaemia cells (OCI-AML5, TF-1) (human), sequence (P26951 19-378): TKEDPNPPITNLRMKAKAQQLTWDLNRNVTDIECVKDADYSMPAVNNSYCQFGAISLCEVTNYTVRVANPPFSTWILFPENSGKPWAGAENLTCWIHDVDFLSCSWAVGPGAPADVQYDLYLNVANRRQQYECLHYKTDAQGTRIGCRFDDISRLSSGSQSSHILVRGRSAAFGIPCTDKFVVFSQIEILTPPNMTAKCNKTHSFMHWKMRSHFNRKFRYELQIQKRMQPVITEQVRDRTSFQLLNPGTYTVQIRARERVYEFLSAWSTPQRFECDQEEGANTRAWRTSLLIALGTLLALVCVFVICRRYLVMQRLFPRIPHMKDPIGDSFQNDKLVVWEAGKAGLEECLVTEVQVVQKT

EC50 (read off the curve) [1]: 7 µg/mL | Kd [2]: 0.057 nM | IC50 (read off the curve): IL-3-induced CD123/CD131 heteromerization (RLU) [3]: 200 ng/mL | Kd [4]: 0.154 nM | IC50 (read off the curve): IL-3-induced CD123/CD131 heteromerization (RLU) [5]: 50 ng/mL
B1: 7G3 (antibody, from another filing, V domains shown)
VH: EVQLQQSGPELVKPGASVKMSCKASGYTFTDYYMKWVKQSHGKSLEWIGDIIPSNGATFYNQKFKGKATLTVDRSSSTAYMHLNSLTSEDSAVYYCTRSHLLRASWFAYWGQGTLVTVSA
VL: DFVMTQSPSSLTVTAGEKVTMSCKSSQSLLNSGNQKNYLTWYLQKPGQPPKLLIYWASTRESGVPDRFTGSGSGTDFTLTISSVQAEDLAVYYCQNDYSYPYTFGGGTKLEIKR
